Test results reported in US20230062308A1, “TREATMENT OF CK8 POSITIVE CANCERS IN RELATION WITH K-RAS GENE STATUS” (INTERNATIONAL - DRUG - DEVELOPMENT - BIOTECH, priority 2017, published 2023).

Target: T1, eCK8 (Homo sapiens, UniProt P05787)
T1 construct: methods to investigate on CK8 cellular expression at the cell surface analysed by flow cytometry; endogenous in cells
T1 sequence (P05787 1-483): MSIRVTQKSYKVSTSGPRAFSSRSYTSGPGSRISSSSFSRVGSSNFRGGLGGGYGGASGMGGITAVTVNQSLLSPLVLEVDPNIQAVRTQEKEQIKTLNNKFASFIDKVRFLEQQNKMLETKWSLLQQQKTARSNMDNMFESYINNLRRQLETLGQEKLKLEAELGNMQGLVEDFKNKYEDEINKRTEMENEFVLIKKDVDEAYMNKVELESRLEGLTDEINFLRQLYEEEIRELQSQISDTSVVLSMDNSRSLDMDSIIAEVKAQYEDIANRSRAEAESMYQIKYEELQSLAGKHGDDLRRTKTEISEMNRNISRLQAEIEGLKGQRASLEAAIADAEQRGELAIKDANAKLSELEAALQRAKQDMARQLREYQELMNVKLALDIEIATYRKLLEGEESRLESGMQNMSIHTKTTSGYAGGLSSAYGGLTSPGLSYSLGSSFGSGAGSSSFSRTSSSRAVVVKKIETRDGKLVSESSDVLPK
Assay: Antibody binding assay by flow cytometry (eCK8 expression on solid tumour cell lines)
Conditions: MAb 5 μg/mL, mean ± SD
Protocol: Cell lines. The established human neuroglioma cells H4, HS683, U373 or A172 (available from ATCC); the established human colorectal cells HT29; the established human pancreatic cells PANC1 or MIA-PA-CA2; the established human kidney adenocarcinoma cells A704 or ACHN and the established human lung adenocarcinoma cells A549 were grown in Dulbecco's Modified Eagle's Medium (Sigma, St Quentin Fallavier, France) supplemented with 10% heat-inactivated foetal bovine serum (FBS) (Sigma, St Quentin Fallavier, France), […] L-glutamine (Sigma, St Quentin Fallavier, France) and 100 U/mL, 100 μg/mL penicillin-streptomycin (Sigma, St Quentin Fallavier, France). The established human glioblastoma astrocytoma cells U87MG or T98G, the human head and neck cancer cells FaDu or Detroit562, the human urinary cancer cells UM-UC-3, J82, HT1197 or HT1376 and the human prostate cancer cells DU145 were grown in Eagle's Minimum Essential Medium (Sigma, St Quentin Fallavier, France) supplemented with 10% heat-inactivated fetal bovine serum (FBS) (Sigma, St Quentin Fallavier, France), […] L-glutamine (Sigma, St Quentin Fallavier, France) and 100 U/mL, 100 μg/mL penicillin-streptomycin (Sigma, St Quentin Fallavier, France). The established human breast adenocarcinoma cells MDAMB231, MCF-7 or HBL100 and the human colorectal cancer cells HCT116 were grown in Dulbecco's Modified Eagle's Medium Glutamax Low Glucose (Life Technologies, St Aubin, France) supplemented with 10% heat-inactivated fetal bovine serum (FBS) (Sigma, St Quentin Fallavier, France), […] L-glutamine (Sigma, St Quentin Fallavier, France) and 100 U/mL, 100 μg/mL penicillin-streptomycin (Sigma, St Quentin Fallavier, France).The established human colorectal cells HCT15 or SW480 and the human head and neck cancer cells TR146 were grown in Dulbecco's Modified Eagle's Medium Glutamax High Glucose (Life Technologies, St Aubin, France) supplemented with 10% heat-inactivated fetal bovine serum (FBS) (Sigma, St Quentin Fallavier, France) and 100 U/mL, 100 μg/mL penicillin-streptomycin (Sigma, St Quentin Fallavier, France). The established human head and neck cancer cells BICR16, BICR18 or BICR56 were grown in Dulbecco's Modified Eagle's Medium (Sigma, St Quentin Fallavier, France) supplemented with 10% heat-inactivated foetal bovine serum (FBS) (Sigma, St Quentin Fallavier, France), […] L-glutamine (Sigma, St Quentin Fallavier, France), 100 U/mL, 100 μg/mL penicillin-streptomycin (Sigma, St Quentin Fallavier, France) and 0.4 μg/mL hydrocortisone (Sigma, St Quentin Fallavier, France). The established human head and neck cancer cells SCC9, SCC4 or SCC15 were grown in Dulbecco's Modified Eagle's Medium/F12 (Life Technologies, St Aubin, France) supplemented with 10% heat-inactivated foetal bovine serum (FBS) (Sigma, St Quentin Fallavier, France), […] L-glutamine (Sigma, St Quentin Fallavier, France), 100 U/mL, 100 μg/mL penicillin-streptomycin (Sigma, St Quentin Fallavier, France) and 0,4 μg/mL hydrocortisone (Sigma, St Quentin Fallavier, France). The established human urinary bladder carcinoma cells 5637, the human prostate cancer cells LNCap clone FGC, the established human lung adenocarcinoma cells NCIH1703 or NCIH292, the human pancreatic cancer cells PSN1 or BxPC3 and the human kidney adenocarcinoma cells Caki1 were grown in RPMI-1640 Medium (Sigma, St Quentin Fallavier, France) supplemented with 10% heat-inactivated fetal bovine serum (FBS) (Sigma, St Quentin Fallavier, France), […] L-glutamine (Sigma, St Quentin Fallavier, France) and 100 U/mL, 100 μg/mL penicillin-streptomycin (Sigma, St Quentin Fallavier, France). […]

[1] = Detroit562 cell line (Head & Neck)
[2] = LNCaP clone FGC cell line (Prostate)
[3] = MIA-Pa-Ca-2 cell line (Pancreatic)

B1: HzR022 (D-A10): humanized anti-CK8 monoclonal antibody D-A10; VL SEQ ID NO: 14, VH SEQ ID NO: 15 (antibody, V domains shown)
VH: EVQLVESGGGLVQPGGSLRLSCAASGFTFSSYWMSWVRQAPGKGLVWVSDINSDGSSTKYADSVKGRFTISRDNAKNTLYLQMNSLRAEDTAVYYCIAHYSGGGFAYWGQGTLVTVSS
VL: DIVMTQAPLSLPVTPGEPASISCRSSKSLLYSNGYNYLYWFLQKPGQSPQLLIYYMSNLASGVPDRFSGSGSGTDFTLKISRVEAEDVGVYYCMQSLEYPFTFGQGTKLEIK
modifications: VHHzD-A10; VLHzD-A10
% labelled cells (8-MG-BA cell line (GBM)): 72 ± 11%
MFI (8-MG-BA cell line (GBM)): 261 ± 38
% labelled cells (42-MG-BA cell line (GBM)): 54 ± 7%
MFI (42-MG-BA cell line (GBM)): 247 ± 44
% labelled cells (5637 cell line (Urinary)): 59 ± 20%
MFI (5637 cell line (Urinary)): 284 ± 61
% labelled cells (A172 cell line (GBM)): 35 ± 23%
MFI (A172 cell line (GBM)): 186 ± 14
% labelled cells (A549 cell line (Lung)): 36 ± 12%
MFI (A549 cell line (Lung)): 193 ± 38
% labelled cells (A704 cell line (Renal)): 37 ± 26%
MFI (A704 cell line (Renal)): 184 ± 30
% labelled cells (ACHN cell line (Renal)): 46 ± 20%
MFI (ACHN cell line (Renal)): 195 ± 20
% labelled cells (AsPC-1 cell line (Pancreatic)): 26 ± 14%
MFI (AsPC-1 cell line (Pancreatic)): 181 ± 17
% labelled cells (BICR16 cell line (Head & Neck)): 52 ± 2%
MFI (BICR16 cell line (Head & Neck)): 206 ± 10
% labelled cells (BICR18 cell line (Head & Neck)): 79 ± 9%
MFI (BICR18 cell line (Head & Neck)): 257 ± 23
% labelled cells (BICR56 cell line (Head & Neck)): 39 ± 34%
MFI (BICR56 cell line (Head & Neck)): 123 ± 4
% labelled cells (BxPC-3 cell line (Pancreatic)): 41 ± 17%
MFI (BxPC-3 cell line (Pancreatic)): 220 ± 17
% labelled cells (CFPAC-1 cell line (Pancreatic)): 62 ± 4%
MFI (CFPAC-1 cell line (Pancreatic)): 279 ± 25
% labelled cells (Caki1 cell line (Renal)): 49 ± 12%
MFI (Caki1 cell line (Renal)): 267 ± 36
% labelled cells (DU145 cell line (Prostate)): 19 ± 11%
MFI (DU145 cell line (Prostate)): 185 ± 42
% labelled cells [1]: 36 ± 0%
MFI [1]: 203 ± 15
% labelled cells (FaDu cell line (Head & Neck)): 56 ± 8%
MFI (FaDu cell line (Head & Neck)): 258 ± 20
% labelled cells (H4 cell line (GBM)): 58 ± 33%
MFI (H4 cell line (GBM)): 199 ± 40
% labelled cells (HBL100 cell line (Breast)): 67 ± 8%
MFI (HBL100 cell line (Breast)): 219 ± 6
% labelled cells (HCT116 cell line (Colon)): 64 ± 0%
MFI (HCT116 cell line (Colon)): 283 ± 16
% labelled cells (HS683 cell line (GBM)): 54 ± 9%
MFI (HS683 cell line (GBM)): 225 ± 24
% labelled cells (HT29 cell line (Colon)): 49 ± 9%
MFI (HT29 cell line (Colon)): 203 ± 22
% labelled cells (HT1197 cell line (Urinary)): 23 ± 7%
MFI (HT1197 cell line (Urinary)): 240 ± 4
% labelled cells (HT1376 cell line (Urinary)): 53 ± 3%
MFI (HT1376 cell line (Urinary)): 497 ± 11
% labelled cells (HuP-T3 cell line (Pancreatic)): 62 ± 17%
MFI (HuP-T3 cell line (Pancreatic)): 260 ± 20
% labelled cells (J82 cell line (Urinary)): 68 ± 9%
MFI (J82 cell line (Urinary)): 319 ± 4
% labelled cells [2]: 76 ± 9%
MFI [2]: 412 ± 21
% labelled cells (MCF-7 cell line (Breast)): 56 ± 33%
MFI (MCF-7 cell line (Breast)): 250 ± 61
% labelled cells (MDAMB231 cell line (Breast)): 49 ± 14%
MFI (MDAMB231 cell line (Breast)): 179 ± 15
% labelled cells [3]: 58 ± 14%
MFI [3]: 264 ± 14
% labelled cells (NCIH292 cell line (Lung)): 53 ± 20%
MFI (NCIH292 cell line (Lung)): 272 ± 38
% labelled cells (NCIH1703 cell line (Lung)): 33 ± 10%
MFI (NCIH1703 cell line (Lung)): 188 ± 12
% labelled cells (PANC-1 cell line (Pancreatic)): 37 ± 7%
MFI (PANC-1 cell line (Pancreatic)): 198 ± 23
% labelled cells (PSN-1 cell line (Pancreatic)): 15 ± 6%
MFI (PSN-1 cell line (Pancreatic)): 193 ± 16
% labelled cells (SCC4 cell line (Head & Neck)): 59 ± 16%
MFI (SCC4 cell line (Head & Neck)): 222 ± 88
% labelled cells (SCC9 cell line (Head & Neck)): 30 ± 23%
MFI (SCC9 cell line (Head & Neck)): 193 ± 23
% labelled cells (SCC 15 cell line (Head & Neck)): 41 ± 21%
MFI (SCC 15 cell line (Head & Neck)): 167 ± 13
% labelled cells (SW480 cell line (Colon)): 38 ± 3%
MFI (SW480 cell line (Colon)): 179 ± 1
% labelled cells (T98G cell line (GBM)): 48 ± 25%
MFI (T98G cell line (GBM)): 211 ± 20
% labelled cells (TCCSUP cell line (Urinary)): 62 ± 10%
MFI (TCCSUP cell line (Urinary)): 255 ± 48
% labelled cells (TR146 cell line (Head & Neck)): 55 ± 18%
MFI (TR146 cell line (Head & Neck)): 140 ± 4
% labelled cells (U87-MG cell line (GBM)): 38 ± 23%
MFI (U87-MG cell line (GBM)): 178 ± 35
% labelled cells (U373 cell line (GBM)): 53 ± 1%
MFI (U373 cell line (GBM)): 161 ± 7
% labelled cells (UM-UC-3 cell line (Urinary)): 26 ± 23%
MFI (UM-UC-3 cell line (Urinary)): 156 ± 14
